Measurements as given in the supplement of paper PMC10567573.

B1: PTPN9 (parent)
chain: IDFLRVVRNQQSLAVSNMGARSKG

Variants of: B1
Test: protein stability index of a GFP-peptide fusion (GPS, HEK-293T) (PSI 1-6); higher = more stable
Conditions: c terminus: a fixed tail appended
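Note: lentivirally expressed fusions sorted by FACS into six bins by GFP to DsRed ratio, PSI derived from sequencing read proportions per bin multiplied by bin number.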

Variant | protein stability index
IDFLRVVRNQQSLNVSNMGARSKG [A14N] | 2.4
IDFLRVVRNQQSLGVSNMGARSKG [A14G] | 2.3
IDFLRVVRNQQSLPVSNMGARSKG [A14P] | 2.7
IDFLRVVRNQQSLYVSNMGARSKG [A14Y] | 2.04
IDFLRVVRNQQSLCVSNMGARSKG [A14C] | 2.01
IDFLRVVRNQQSLHVSNMGARSKG [A14H] | 2.48
IDFLRVVRNQQSLRVSNMGARSKG [A14R] | 2.13
IDFLRVVRNQQSLDVSNMGARSKG [A14D] | 2.17
IDFLRVVRNQQSLWVSNMGARSKG [A14W] | 2.39
IDFLRVVRNQQSLSVSNMGARSKG [A14S] | 2.23
IDFLRVVRNQQSLMVSNMGARSKG [A14M] | 2.66
IDFLRVVRNQQSLEVSNMGARSKG [A14E] | 1.95
IDFLRVVRNQQSLKVSNMGARSKG [A14K] | 2.13
IDFLRVVRNQQSLLVSNMGARSKG [A14L] | 1.76
IDFLRVVRNQQSLVVSNMGARSKG [A14V] | 2.22
IDFLRVVRNQQSLTVSNMGARSKG [A14T] | 2.64
IDFLRVVRNQQSLFVSNMGARSKG [A14F] | 2.23
IDFLRVVRNQQSLQVSNMGARSKG [A14Q] | 2.09
IDFLRVVRNQQSLIVSNMGARSKG [A14I] | 1.8
IDFLRVVRNQQSLAHSNMGARSKG [V15H] | 2.56
IDFLRVVRNQQSLAFSNMGARSKG [V15F] | 2.18
IDFLRVVRNQQSLADSNMGARSKG [V15D] | 2.52
IDFLRVVRNQQSLALSNMGARSKG [V15L] | 2.41
IDFLRVVRNQQSLANSNMGARSKG [V15N] | 2.86

Variant | protein stability index
IDFLRVVRNQQSLAASNMGARSKG [V15A] | 2.82
IDFLRVVRNQQSLACSNMGARSKG [V15C] | 2.28
IDFLRVVRNQQSLAMSNMGARSKG [V15M] | 2.61
IDFLRVVRNQQSLAESNMGARSKG [V15E] | 2.69
IDFLRVVRNQQSLAPSNMGARSKG [V15P] | 2.36
IDFLRVVRNQQSLARSNMGARSKG [V15R] | 2.31
IDFLRVVRNQQSLAQSNMGARSKG [V15Q] | 2.79
IDFLRVVRNQQSLAWSNMGARSKG [V15W] | 2.25
IDFLRVVRNQQSLASSNMGARSKG [V15S] | 2.49
IDFLRVVRNQQSLAYSNMGARSKG [V15Y] | 2.15
IDFLRVVRNQQSLAISNMGARSKG [V15I] | 1.97
IDFLRVVRNQQSLATSNMGARSKG [V15T] | 2.69
IDFLRVVRNQQSLAKSNMGARSKG [V15K] | 2.62
IDFLRVVRNQQSLAGSNMGARSKG [V15G] | 2.83
IDFLRVVRNQQSLAVSQMGARSKG [N17Q] | 2.42
IDFLRVVRNQQSLAVSYMGARSKG [N17Y] | 1.93
IDFLRVVRNQQSLAVSAMGARSKG [N17A] | 2.7
IDFLRVVRNQQSLAVSRMGARSKG [N17R] | 2.45
IDFLRVVRNQQSLAVSPMGARSKG [N17P] | 2.27
IDFLRVVRNQQSLAVSFMGARSKG [N17F] | 2.12
IDFLRVVRNQQSLAVSKMGARSKG [N17K] | 2.24
IDFLRVVRNQQSLAVSHMGARSKG [N17H] | 2.9
IDFLRVVRNQQSLAVSLMGARSKG [N17L] | 2.22
IDFLRVVRNQQSLAVSGMGARSKG [N17G] | 2.21

Variant | protein stability index
IDFLRVVRNQQSLAVSWMGARSKG [N17W] | 2.14
IDFLRVVRNQQSLAVSEMGARSKG [N17E] | 3.08
IDFLRVVRNQQSLAVSVMGARSKG [N17V] | 2
IDFLRVVRNQQSLAVSDMGARSKG [N17D] | 2.63
IDFLRVVRNQQSLAVSMMGARSKG [N17M] | 1.65
IDFLRVVRNQQSLAVSCMGARSKG [N17C] | 2.1
IDFLRVVRNQQSLAVSIMGARSKG [N17I] | 2.09
IDFLRVVRNQQSLAVSTMGARSKG [N17T] | 2.71
IDFLRVVRNQQSLAVSSMGARSKG [N17S] | 2.74
IDFLRVVRNQQSLAVSNMAARSKG [G19A] | 2.47
IDFLRVVRNQQSLAVSNMTARSKG [G19T] | 2.27
IDFLRVVRNQQSLAVSNMPARSKG [G19P] | 2.83
IDFLRVVRNQQSLAVSNMIARSKG [G19I] | 2.19
IDFLRVVRNQQSLAVSNMDARSKG [G19D] | 2.35
IDFLRVVRNQQSLAVSNMVARSKG [G19V] | 2.13
IDFLRVVRNQQSLAVSNMQARSKG [G19Q] | 2.96
IDFLRVVRNQQSLAVSNMRARSKG [G19R] | 1.97
IDFLRVVRNQQSLAVSNMLARSKG [G19L] | 2.12
IDFLRVVRNQQSLAVSNMHARSKG [G19H] | 2.57
IDFLRVVRNQQSLAVSNMNARSKG [G19N] | 2.72
IDFLRVVRNQQSLAVSNMMARSKG [G19M] | 2.3
IDFLRVVRNQQSLAVSNMSARSKG [G19S] | 2.08
IDFLRVVRNQQSLAVSNMFARSKG [G19F] | 2.94
IDFLRVVRNQQSLAVSNMWARSKG [G19W] | 2.66

Variant | protein stability index
IDFLRVVRNQQSLAVSNMYARSKG [G19Y] | 2.16
IDFLRVVRNQQSLAVSNMEARSKG [G19E] | 2.91
IDFLRVVRNQQSLAVSNMKARSKG [G19K] | 2.58
IDFLRVVRNQQSLAVSNMCARSKG [G19C] | 2.24
IDFLRVVRNQQSLAVFNMGARSKG [S16F] | 2.31
IDFLRVVRNQQSLAVYNMGARSKG [S16Y] | 2.38
IDFLRVVRNQQSLAVNNMGARSKG [S16N] | 2.52
IDFLRVVRNQQSLAVLNMGARSKG [S16L] | 1.89
IDFLRVVRNQQSLAVANMGARSKG [S16A] | 3.26
IDFLRVVRNQQSLAVENMGARSKG [S16E] | 2.64
IDFLRVVRNQQSLAVDNMGARSKG [S16D] | 2.48
IDFLRVVRNQQSLAVGNMGARSKG [S16G] | 2.35
IDFLRVVRNQQSLAVPNMGARSKG [S16P] | 2.54
IDFLRVVRNQQSLAVINMGARSKG [S16I] | 1.74
IDFLRVVRNQQSLAVCNMGARSKG [S16C] | 1.99
IDFLRVVRNQQSLAVVNMGARSKG [S16V] | 1.9
IDFLRVVRNQQSLAVQNMGARSKG [S16Q] | 2.78
IDFLRVVRNQQSLAVHNMGARSKG [S16H] | 2.15
IDFLRVVRNQQSLAVKNMGARSKG [S16K] | 2.59
IDFLRVVRNQQSLAVRNMGARSKG [S16R] | 2.78
IDFLRVVRNQQSLAVWNMGARSKG [S16W] | 1.46
IDFLRVVRNQQSLAVTNMGARSKG [S16T] | 2.2
